Data as given in patent US20040235002A1, “Multiplex screening assays” (Sangamo BioSciences, Inc., priority 2002, published 2004).

What was measured:
[1] = test system: ZFP1727-TRbeta LBD (synthetic/human); test: cell_activity; settings: GRP mRNA, 100 nM T3, HEK293
[2] = test system: ZFP757-ERalpha LBD (synthetic/human); test: cell_activity; settings: AnxA8 mRNA, 100 nM 17beta-estradiol vs untreated, HEK293
ERα and ERβ = settings: Barkham et al. (1998) Molecular Pharmacology, 54:105-112; cited from earlier work
[3] = test system: ZFP734-FXR LBD (synthetic/human); test: cell_activity; settings: Kip2 mRNA, 100 nM CDCA vs untreated, HEK293

For “GGTGGGGAGG (double strand) [GRP site (ZFP1727)]”, which activity [1] is on record?
Its activity is 14 fold.

Which activity [2] does the source give for “CGGGCGGCTG (double strand) [anxA8 site (ZFP757)]” here?
The activity was 12 fold.

With `C[C@]12CC[C@@H]3c4ccc(O)cc4CC[C@H]3[C@@H]1CC[C@H]2O` [17alpha-estradiol] as the compound, how does the “activation of ERα and ERβ as known from the literature” value (ERα and ERβ) read?
Its value is “preferentially activates ERα”.

With “GGGGCTGGGT (double strand) [kip2 site (ZFP734)]” as the compound, how does the activity [3] read?
The activity was 3.5 fold.
